Data: patent US20180044416A1

What follows are substances tested against human FcRn with human beta2M on MDCK II clone 15 cells (human) (UniProt P55899) (assay: cell-based or functional assay).
Chain of UniProt P55899 (P55899 24-365, chain 1 of 2): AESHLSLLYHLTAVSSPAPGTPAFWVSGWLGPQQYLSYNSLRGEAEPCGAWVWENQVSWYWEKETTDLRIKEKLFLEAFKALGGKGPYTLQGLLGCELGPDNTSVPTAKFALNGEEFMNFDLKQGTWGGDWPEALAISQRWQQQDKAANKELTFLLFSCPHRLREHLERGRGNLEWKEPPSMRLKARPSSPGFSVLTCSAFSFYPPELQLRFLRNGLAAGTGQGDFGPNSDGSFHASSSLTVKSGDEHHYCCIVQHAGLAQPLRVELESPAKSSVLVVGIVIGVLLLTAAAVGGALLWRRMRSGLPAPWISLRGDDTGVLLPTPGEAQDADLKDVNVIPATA
Chain of UniProt P55899 (P61769 21-119, chain 2 of 2, further chain): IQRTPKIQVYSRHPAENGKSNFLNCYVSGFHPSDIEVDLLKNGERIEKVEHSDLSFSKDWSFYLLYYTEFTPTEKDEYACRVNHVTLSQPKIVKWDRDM

Row | Substance | Blockade of IgG intracellular uptake EC50 [µg/mL] | Blockade of IgG recycling EC50 [µg/mL] | Blockade of IgG recycling, maximal inhibition [%]
1 | IgG1 IgM tail-piece, V308F (Fc fusion) | 0.12 | 0.073 | –
2 | IgG1 IgM tail-piece, T307A (Fc fusion) | 0.54 | 0.35 | –
3 | IgG1 IgM tail-piece, H310L (Fc fusion) | – | – | 45
4 | IgG4 IgM tail-piece, V308F (Fc fusion) | 0.42 | 0.56 | –
5 | IgG1 IgM tail-piece, V308P (Fc fusion) | 0.34 | 0.55 | –
6 | IgG4 IgM tail-piece, V308P (Fc fusion) | 0.51 | 0.42 | –
7 | IgG4 IgM tail-piece, T307A (Fc fusion) | 0.5 | – | –
